Results published in PMC8612281, “Aromatic Dimer Dehydrogenases from Novosphingobium aromaticivorans Reduce Monoaromatic Diketones” (Applied and Environmental Microbiology, 2021).

B1: LigL (Novosphingobium aromaticivorans DSM 12444) (protein)
chain: MGIETFAGRTAFVTGGASGIGLGIVKALARRDAFVVIADMRTDHISRALKALASAGLGESVAAVELDVTDRAAYASMARRMDEEFGGIDVLVNNAGVGVEGPILQATYPDWDFGLGVNLGGVVNGLQAMLPQMIAHGRGGHVVNTASLAATVVMPGHLAIYAAGKAAVLNLTENMRADLAGRGIGSSVLCPGFVRSNIHEAARNRPAHLREGSGFAASEQALSMRETGSEWMDPDAVGEMVADAILADQLYVITHGEFANRMRERAEALLAATPVCEMQF
B2: LigN (Novosphingobium aromaticivorans DSM 12444) (protein)
chain: MQNLPGKTAFVTGGASGIGLGIAKALLGAGMNVTIADIRQDHLDSAVAELGGGERVLAVKLDVTNRDQFAKAADATEAKFGKIHLLVNNAGVAVVGPTELATFADWDWVMGVNVNGTINGIVTILPRILAHGEGGHIVCTASMSALVPVAGTTIYSAGKAAVTAMMECMRPELEGRGVICSAFCPGAVQSNIADAAKTRPAELADTGYAEADKRRAAGGNFMHLYQTKEQVGERVLEGILNDELYILTHAEFLTGVEERGLATTAAVQTHLPENPEYKETFAALFRNPAITDEIARQNKLKETRKAGVEA
B3: LigD (Novosphingobium aromaticivorans DSM 12444) (protein)
chain: MQSFENEIAFITGGASGAGFGQAQVFGRAGAKIVVADVRAEAVERAVAALKAEGIVAHGLVLDITDRQAYAGAADEVEQVFGAAPTLLFNTAGVNSFGPVEDTSYDDFDWIVGVNLGGVINGMVTFVPRMIASGRPGHIVTTSSLGGLMGSALAAPYSAAKAAVINLMESYRQGLDKHGIGVSVLCPANIKSNIAEASRLRPAQFGKSGYVENEESIASLHSIHQHGMDPVELAEHVKAGIVANQLYIIPYPEAKDGLRQHFDAIVDAVLPLEADPEGARARTEALNAWAADRARVFMEKNAAQKA

Columns and labels:
Assay in all cases: purified protein
[1] = substrate: COc1cc(C(O)C(CO)Oc2ccccc2OC)ccc1O; conditions: 0.1 mM NAD+, 0.1 μM enzyme, 25 mM Tris-HCl pH 8, 25 mM NaCl, oxidation
[2] = substrate: COc1cc(C(O)C(C)O)ccc1O; format: biochemical, Novosphingobium aromaticivorans; conditions: 0.1 mM NAD+, 0.1 μM enzyme, 25 mM Tris-HCl pH 8, 25 mM NaCl, oxidation
[3] = substrate: COc1cc(C(=O)C(C)=O)ccc1O; format: biochemical, Novosphingobium aromaticivorans; conditions: 0.1 mM NADH, 25 mM Tris-HCl pH 8, 25 mM NaCl, reduction of Cα ketone

Protein | Km [1] [µM] | kcat [1] [s⁻¹] | Km [2] [µM] | kcat [2] [s⁻¹] | Km ([3]; 0.01 μM enzyme) [µM] | kcat ([3]; 0.01 μM enzyme) [s⁻¹] | Km ([3]; 0.1 μM enzyme) [µM] | kcat ([3]; 0.1 μM enzyme) [s⁻¹]
B1 | 440 | 0.12 | 1530 | 0.03 | 3400 | 1.44 |  | 
B2 | 80 | 0.30 |  |  |  |  | 310 | 0.1
B3 | 70 | 0.2 |  |  |  |  | 410 | 0.02
